The labels stand for the following.
T1: human factor Xa (human, UniProt P00742 41-179; P00742 235-488)
T1 chain 1: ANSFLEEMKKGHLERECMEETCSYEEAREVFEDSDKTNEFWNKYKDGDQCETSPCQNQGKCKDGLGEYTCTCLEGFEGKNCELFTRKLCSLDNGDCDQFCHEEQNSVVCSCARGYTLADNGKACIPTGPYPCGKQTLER
T1 chain 2: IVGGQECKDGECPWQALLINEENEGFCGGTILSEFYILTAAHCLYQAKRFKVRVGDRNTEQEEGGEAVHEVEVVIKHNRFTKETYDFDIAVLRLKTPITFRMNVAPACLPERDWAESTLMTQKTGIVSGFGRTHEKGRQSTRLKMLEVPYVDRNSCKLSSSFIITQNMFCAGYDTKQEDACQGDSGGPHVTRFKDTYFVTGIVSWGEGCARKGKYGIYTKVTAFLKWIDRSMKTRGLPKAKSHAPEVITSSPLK

T2: human factor XIIa (human, UniProt P00748 20-615, biotinylated with Biotin Ester (Zymed); sites not stated)
T2 chain: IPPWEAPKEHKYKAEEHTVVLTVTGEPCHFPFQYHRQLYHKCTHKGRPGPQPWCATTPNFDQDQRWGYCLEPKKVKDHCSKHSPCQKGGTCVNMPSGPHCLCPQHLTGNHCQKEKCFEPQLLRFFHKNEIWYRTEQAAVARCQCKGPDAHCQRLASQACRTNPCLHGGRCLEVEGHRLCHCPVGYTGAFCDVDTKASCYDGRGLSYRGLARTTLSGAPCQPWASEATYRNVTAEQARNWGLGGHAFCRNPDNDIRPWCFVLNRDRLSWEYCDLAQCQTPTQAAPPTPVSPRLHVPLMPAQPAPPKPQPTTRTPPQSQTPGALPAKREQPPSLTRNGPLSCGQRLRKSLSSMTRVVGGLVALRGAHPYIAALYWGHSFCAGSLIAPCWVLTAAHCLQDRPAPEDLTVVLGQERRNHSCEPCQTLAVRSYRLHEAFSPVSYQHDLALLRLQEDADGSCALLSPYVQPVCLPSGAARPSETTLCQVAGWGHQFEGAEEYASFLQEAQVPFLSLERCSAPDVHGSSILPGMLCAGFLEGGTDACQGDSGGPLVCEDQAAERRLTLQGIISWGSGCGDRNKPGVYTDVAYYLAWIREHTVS

B1: TW6202 (protein)
chain: EVVREVCSEQAETGPCRAGIWRWYFDVTEGKCAPFFYGGCGGNRNNFDTEEYCMAVCGSAI
B2: DD114 (protein)
chain: B1 chain with G19A, W21S, G41R
B3: BG003 (protein)
chain: B1 chain with G19M, I20L, W21H
B4: TW6203 (protein)
chain: B1 chain with W21P
B5: TW6201 (protein)
chain: B1 chain with W21Y
B6: TW6184 (protein)
chain: B1 chain with G19M, I20H, W21Y
B7: TW6204 (protein)
chain: B1 chain with G19A, W21S, R22A
B8: TW6183 (protein)
chain: B1 chain with G19M, I20H, W21F
B9: TW6205 (protein)
chain: B1 chain with G19L, W21S, R22A
B10: TW6175 (protein)
chain: B1 chain with G19L, W21F
B11: BG031 (protein)
chain: B1 chain with T13V, G19M, W21S
B12: BG032 (protein)
chain: B1 chain with T13S, G19M, W21S
B13: TW6179 (protein)
chain: B1 chain with W21S
B14: DD112 (protein)
chain: B1 chain with G19V, W21S
B15: TW6208 (protein)
chain: B1 chain with A18G, G19M, W21S
B16: TW122 (protein)
chain: EVCSEQAETGPCRAMISRWYFDVTEGKCAPFFYGGCGANRNNFDTEEYCMAVCGSAI
B17: DD101 (protein)
chain: B1 chain with G19M, W21S, G41D
B18: DD129 (protein)
chain: B1 chain with G19L, I20F, W21S
B19: TW6178 (protein)
chain: B1 chain with G19M, W21S, G42R
B20: TW6151 (protein)
chain: B1 chain with G19M, W21S, G41E
B21: TW6153 (protein)
chain: B1 chain with G19M, W21S, G41I
B22: TW6161 (protein)
chain: B1 chain with G19M, W21S, G41Y
B23: BG002 (protein)
chain: B1 chain with G19L, I20L, W21S
B24: TW6139 (protein)
chain: B1 chain with G19M, W21S, G41H
B25: TW6159 (protein)
chain: B1 chain with G19M, W21S, G41V
B26: TW6174 (protein)
chain: B1 chain with G19L, I20H, W21S
B27: TW6173 (protein)
chain: B1 chain with G19A, I20H, W21S
B28: TW6209 (protein)
chain: B1 chain with G19M, W21S, R22H
B29: TW6154 (protein)
chain: B1 chain with G19M, W21S, G41L
B30: TW6138 (protein)
chain: B1 chain with G19M, W21S, G41K
B31: TW6157 (protein)
chain: B1 chain with G19M, W21S, G41S
B32: TW6142 (protein)
chain: B1 chain with G19M, W21S, F36V
B33: TW6147 (protein)
chain: B1 chain with G19M, W21S, G41A

Positions count from the first letter of the chain named.

For the first test, the target named is T3, human plasma kallikrein (human, UniProt P03952 20-638). As to the kind of experiment: enzyme inhibition.
T3 sequence (P03952 20-638): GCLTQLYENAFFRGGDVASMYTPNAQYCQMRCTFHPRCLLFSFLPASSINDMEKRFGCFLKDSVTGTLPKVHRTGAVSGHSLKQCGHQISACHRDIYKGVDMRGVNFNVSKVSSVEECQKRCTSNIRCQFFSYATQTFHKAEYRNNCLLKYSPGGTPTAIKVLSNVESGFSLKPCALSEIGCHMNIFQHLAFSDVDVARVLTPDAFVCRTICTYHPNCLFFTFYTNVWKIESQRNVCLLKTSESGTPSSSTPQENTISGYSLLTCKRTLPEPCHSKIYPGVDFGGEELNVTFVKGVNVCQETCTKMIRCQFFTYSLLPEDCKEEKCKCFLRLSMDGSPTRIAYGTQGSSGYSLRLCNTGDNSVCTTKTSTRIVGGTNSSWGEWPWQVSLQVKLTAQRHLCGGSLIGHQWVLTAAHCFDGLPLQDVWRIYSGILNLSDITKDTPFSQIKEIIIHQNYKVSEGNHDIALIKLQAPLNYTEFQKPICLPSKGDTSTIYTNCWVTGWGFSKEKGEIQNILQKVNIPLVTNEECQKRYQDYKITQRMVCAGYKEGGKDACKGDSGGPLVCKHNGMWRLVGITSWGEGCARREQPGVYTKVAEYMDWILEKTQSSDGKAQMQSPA
In general, Ki refers to a measure of affinity in units of concentration, obtained from inhibition or displacement. A low value points to a stronger hold on the target. Molecule B1 returned a Ki of 0.129 µM.
Consider B2, for which the Ki was 0.0007 µM.
Still for that read-out and setting: with B3 the figure was 0.036 µM; with B4, 0.0312 µM.
In turn, B5 registered a Ki of 0.0346 µM.

The target in the next test is T1, human factor Xa. As to the kind of experiment: enzyme inhibition.
As to B6, the Ki was 0.214 µM. In other words, the sub-micromolar range.
For B7, the Ki came to 0.087 µM.
Same read-out and setting: with B8 the figure was 0.159 µM; with B9, 0.029 µM; with B10, 0.056 µM.

The next test addresses T2, human factor XIIa. In words: enzyme inhibition.
As for B1, the Ki was determined as 1.24 µM.
On the same count and under the same terms, the figure for B6 is 14 µM; for B2 it is 0.224 µM; for B3 it is 0.467 µM.
On the same count and under the same terms, with B7 the figure was 0.147 µM; with B8, 12.4 µM; with B4, 5.04 µM.
On to B5, for which the Ki turned out to be 0.419 µM.
B9 yielded a Ki of 0.195 µM.
In turn, B10 showed a Ki of 0.035 µM.

The next test has as its target T3, human plasma kallikrein. In words: enzyme inhibition. The source holds these as a separate data set.
With B11, the affinity corresponds to a Ki of 0.034 µM.
Still for that read-out and setting: with B12 the figure was 0.049 µM; with B13, 0.078 µM; with B14, 0.0068 µM.

Another test concerns the target T2, human factor XIIa. As to the kind of experiment: enzyme inhibition. This is another data set of the same source.
B15 showed a Ki of 0.369 µM.
Same read-out and setting: with B11 the figure was 0.498 µM; with B12, 0.731 µM.
Still for that read-out and setting: with B13 the figure was 0.368 µM; with B14, 0.998 µM.

The target in another test is T3, human plasma kallikrein. In words: enzyme inhibition. The source holds these as a separate data set.
In turn, B16 displayed a Ki of 0.032 µM.
Still for that read-out and setting: the figure for B17 is 0.064 µM; for B18 it is 0.0036 µM; for B19 it is 0.016 µM.
Regarding B20, the Ki stood at 0.163 µM.
Still for that read-out and setting: with B21 the figure was 0.0112 µM; with B22, 0.0075 µM; with B23, 0.00098 µM.
The same measure, in the same setting: with B24 the figure was 0.019 µM.
For B25, affinity was put at a Ki of 0.017 µM.

In a further test the target is T1, human factor Xa. In words: enzyme inhibition. The source holds these as a separate data set.
The molecule B16 returned a Ki of 0.581 µM.
Turning to B18, the affinity, expressed as Ki, was 0.006 µM.
The same measure, in the same setting: with B20 the figure was 0.954 µM; with B21, 0.036 µM; with B22, 0.0087 µM.
On the same count and under the same terms, with B23 the figure was 0.06 µM; with B24, 0.078 µM; with B25, 0.064 µM.

Another test deals with T2, human factor XIIa. In words: enzyme inhibition. The source holds these as a separate data set.
For B17, the affinity, expressed as Ki, was 0.924 µM. That is a sub-micromolar value.
In turn, B26 showed a Ki of 2.8 µM.
The molecule B18 yielded a Ki of 1.86 µM.
The same measure, in the same setting: the figure for B19 is 0.444 µM.
The molecule B20 gave a Ki of 1.16 µM.
In turn, B21 yielded a Ki of 0.065 µM.
Regarding B22, the Ki stood at 1.51 µM. This Ki lies about 23-fold higher than the previous one.
Regarding B23, the Ki is 0.403 µM.
On to B24, for which the affinity, expressed as Ki, was 0.152 µM.
In the case of B27, the Ki worked out at 1.43 µM. This Ki lies about 9.4-fold higher than the previous one.

In another test the target is T3, human plasma kallikrein. In words: enzyme inhibition. The source holds these as a separate data set.
B28 displayed a Ki of 0.081 µM.
B29 showed a Ki of 0.011 µM.
Still for that read-out and setting: the figure for B30 is 0.018 µM; for B31 it is 0.04 µM; for B32 it is 0.018 µM.
On the same count and under the same terms, the figure for B33 is 0.035 µM.

The target in another test is T1, human factor Xa. In words: enzyme inhibition. This is another data set of the same source.
Take B28: the affinity corresponds to a Ki of 0.613 µM. This lies in the sub-micromolar range.
Same read-out and setting: with B29 the figure was 0.039 µM; with B30, 0.309 µM.
The same measure, in the same setting: with B31 the figure was 0.168 µM; with B32, 0.225 µM; with B33, 0.179 µM.

The target in a further test is T2, human factor XIIa. As to the kind of experiment: enzyme inhibition. This is another data set of the same source.
B28 showed a Ki of 0.184 µM.
The molecule B29 gave a Ki of 0.915 µM.
The molecule B30 gave a Ki of 0.921 µM.
On the same count and under the same terms, the figure for B31 is 0.511 µM; for B32 it is 7.97 µM; for B33 it is 1.09 µM.

These data come from US6906033 (dated 2005).
